Data set [1] addresses ZEBRA Z8 (Epstein-Barr virus, UniProt P03206 P03206:195-245). In words: EMSA; dimerization domain without DNA-binding domain. The settings on record: tags: N-terminal His6 (pET15b); label: biotin.
The target in data set [2] is ZEBRA full-length (Z-FL) (Epstein-Barr virus, UniProt P03206 P03206:1-245). In words: EMSA; poly(dI-dC), 1 mM DTT, 4 C. The following applies: tags: N-terminal His6 (pET15b); chain copies: 2; label: biotin. (A gel shift assay detects complexes by their altered migration in electrophoresis.)
Chain of ZEBRA full-length (Z-FL) (P03206 whole entry, the tested form may be a part, one chain of several): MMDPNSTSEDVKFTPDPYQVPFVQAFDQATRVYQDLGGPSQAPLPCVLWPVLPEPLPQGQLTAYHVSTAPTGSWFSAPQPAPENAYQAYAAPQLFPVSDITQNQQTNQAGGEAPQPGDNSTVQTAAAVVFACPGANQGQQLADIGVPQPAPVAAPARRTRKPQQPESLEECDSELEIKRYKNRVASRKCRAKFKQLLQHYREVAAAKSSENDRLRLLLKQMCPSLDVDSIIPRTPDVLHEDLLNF
For data set [3], the target named is ZEBRA Z5 (Epstein-Barr virus, UniProt P03206 P03206:140-195). Kind of data set: EMSA; no dimerization domain. The following applies: tags: N-terminal His6 (pET15b); label: biotin.
The target in data set [4] is T1, ZEBRA Z7 (Epstein-Barr virus, UniProt P03206 P03206:170-195).
T1 chain: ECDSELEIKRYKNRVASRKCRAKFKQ
In words: EMSA; no dimerization domain. The settings on record: tags: N-terminal His6 (pET15b); label: biotin.

Data set [5] concerns the target ZEBRA Z2 (Epstein-Barr virus, UniProt P03206 P03206:1-170). Kind of data set: EMSA; neither DIM nor DB domain. The settings on record: tags: N-terminal His6 (pET15b); label: biotin.
In data set [6] the target is ZEBRA Z3 (Epstein-Barr virus, UniProt P03206 P03206:1-140). Kind of data set: EMSA; neither DIM nor DB domain. The settings on record: tags: N-terminal His6 (pET15b); label: biotin.
Chain of ZEBRA Z3 (P03206 1-140, one chain of several): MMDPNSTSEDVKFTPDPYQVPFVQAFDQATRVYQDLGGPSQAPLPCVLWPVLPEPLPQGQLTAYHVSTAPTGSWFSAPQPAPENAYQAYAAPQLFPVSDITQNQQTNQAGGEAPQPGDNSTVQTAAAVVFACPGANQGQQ
Data set [7] concerns the target ZEBRA Z6 (Epstein-Barr virus, UniProt P03206 SEQ:1-75). Kind of data set: EMSA; efficiency almost equal to full-length ZEBRA; poly(dI-dC), 4 C. The settings on record: tags: N-terminal His6 (pET15b); chain copies: 2; label: biotin.
The target in data set [8] is ZEBRA Z4 (Epstein-Barr virus, UniProt P03206 SEQ:1-105). Described as above. The settings on record: tags: N-terminal His6 (pET15b); chain copies: 2; label: biotin.
Chain of ZEBRA Z4 (P03206 141-245): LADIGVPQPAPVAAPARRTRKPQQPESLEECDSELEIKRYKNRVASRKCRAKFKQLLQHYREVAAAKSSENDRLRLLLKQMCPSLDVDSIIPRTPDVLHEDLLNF

The results in this text go back to patent US20130116201, “USE OF PEPTIDES AS TRANSPORTERS […] FOR THE INTERNALIZATION OF MOLECULES OF […] INTO TARGET CELLS” (UNIVERSITE JOSEPH FOURIER, published 2013).

Chain of ZEBRA Z2 (P03206 1-170, one chain of several): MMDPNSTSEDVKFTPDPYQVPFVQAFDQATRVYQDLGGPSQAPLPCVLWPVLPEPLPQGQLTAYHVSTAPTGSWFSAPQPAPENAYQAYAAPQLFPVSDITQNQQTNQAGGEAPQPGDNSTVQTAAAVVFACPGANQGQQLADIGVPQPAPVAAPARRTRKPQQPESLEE
Chain of ZEBRA Z8 (P03206 195-245, one chain of several): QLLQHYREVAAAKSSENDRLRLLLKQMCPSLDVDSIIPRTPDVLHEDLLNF
Chain of ZEBRA Z6 (P03206 171-245): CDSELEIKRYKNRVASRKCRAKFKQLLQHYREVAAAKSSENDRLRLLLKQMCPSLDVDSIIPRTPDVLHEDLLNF

B1: AP-1 probe (dsDNA)
DNA 1: AGCACTGACTCATGAAGT
DNA 2: TACTTCATGAGTCAGTGCT
On to B1, for which the binding result is “no binding” in data set [1]; “binds” in data set [2]; “no binding” in data set [3]; “no binding” in data set [4]; “no binding” in data set [5]; “no binding” in data set [6]. Further, the binding result in data set [7] and in data set [8] was “binds” each time.
